The results in this text go back to patent publication US20260232830A1 (JIANGSU HENGRUI PHARMACEUTICALS, published 2026).

Experiment [1] has as its target T1, MUC1-C-L-6×His (His-tagged human MUC1-C protein extracellular domain) (human, UniProt P15941 961-1152).
T1 construct: template human MUC1 UniProt P15941; expressed in 293 cells; also called hMUC1-C-L-his; MUC1-C-L-His
The experiment is described as follows: ELISA, coated antigen, hybridoma supernatant.

In experiment [2] the target is T1, MUC1-C-L-6×His (His-tagged human MUC1-C …). Description: SPR Biacore 8K, antibody on Protein A chip, 1:1 fit. For orientation: SPR reads the build-up and loss of mass on a sensor chip optically.
Experiment [3] concerns the target T2, Cynomolgus MUC1 his (Cat. #MU1-C52H5, Acro) (cynomolgus).
T2 construct: bought reagent; also called Cyno MUC1-His
Description: SPR Biacore T200, antibody on Protein A chip, 1:1 fit.

For experiment [4], the target named is T3, human EGFR-His antigen (human, UniProt P00533 25-645).
T3 construct: also called hEGFR-His
The experiment is described as follows: SPR Biacore 8K, antibody on Protein A chip, 1:1 fit.

For experiment [5], the target named is T3, human EGFR-His antigen. Description: SPR Biacore 8K, antibody on Protein A chip; Ag1 hMUC1-C-His bound first, Ag2 hEGFR-His.
The target of experiment [6] is T3, human EGFR-His antigen. The experiment is described as follows: SPR Biacore T200, antibody on Protein A chip, 1:1 fit.
Experiment [7] has as its target T4, cynomolgus EGFR-his (Cat. #90285-C08H, Sino Biological) (cynomolgus, UniProt A0A2K5WK39 25-645).
T4 construct: bought reagent; also called Cyno EGFR-His
The description is as above.

The target in experiment [8] is T3, human EGFR-His antigen. Description: SPR Biacore 8K, antibody on Protein A chip; Ag1 blank, Ag2 hEGFR-His.
Experiment [9] has as its target T5, human EGFR as expressed on tumour cell lines (HCC827, T47D, HPAC) (human, UniProt P00533 25-1210).
T5 construct: whole, on cells; the cell line is named under assay; also called HCC827 cells; T47D cells
Description: FACS, HCC827. A general note: Flow cytometry measures light scatter and fluorescence of single cells or particles in a stream.

In experiment [10] the target is T5, human EGFR as expressed on tumour cell …. The experiment is described as follows: FACS, HPAC.
Experiment [11] has as its target T3, human EGFR-His antigen. The experiment is described as follows: SPR Biacore 8K, antibody on Protein A chip, 1:1 fit. This is another data set of the same source.

B1: M4 (antibody of hybridoma 17F3) (antibody, V domains shown)
VH: QVQLQQSGAELARPGASVKLSCKASGYSFTTYGVPWVKQRTGQGLEWIGDIYPRSGNTYYNEKFKGKATLTADKSSDTVFMELRSLSSEDSAVYFCAREDYDNYPYALDYWGQGTSVTVSS
VL: EIVLTQSPAIIAASPGEKVTITCSASSSVFNMNWYQQKPGSSPKIWIYDISKLASGVPGRFSGSGSGTSFSLTINSMEAEDVGTYYCQQRSFYPPTFGGGTKVEIK
notes: murine antibody tested as hybridoma supernatant; also called hybridoma supernatant 17F3
In experiment [1], B1 yielded an OD450 nm of 1.9.

B2: F4-18 (antibody of hybridoma 36G9) (antibody, V domains shown)
VH: EVQLQQSGAELVRPGSSVKMSCKTSGYTFTSYGINWVKQRPGQGLEWIGYIYLGSDYTEYNEKFKGKATLTSDTTSSTAYMQLSSLTSEDSAIYFCARSAGSLFAYWGQGTLVTVSA
VL: DIQLTQSPSSLSASLGERVSLTCRASQDIGITLNWLQQEPDGTIKRLIYATSSLDSGVPKRFSGSRSGSDYSLTISSLESEDFVDYYCLQYASSPYTFGGGTKLEIK
notes: murine antibody tested as hybridoma supernatant; also called hybridoma supernatant 36G9
For B2, the OD450 nm in experiment [1] is 2.05.

B3: M4-H1L1 (antibody, human IgG1, kappa)
heavy: not shown
light: DIQMTQSPSSLSASVGDRVTITCSASSSVFNMNWYQQKPGKSPKLWIYDISKLASGVPSRFSGSGSGTDFTLTISSLQPEDFATYYCQQRSFYPPTFGGGTKVEIKRTVAAPSVFIFPPSDEQLKSGTASVVCLLNNFYPREAKVQWKVDNALQSGNSQESVTEQDSKDSTYSLSSTLTLSKADYEKHKVYACEVTHQGLSSPVTKSFNRGEC
notes: humanized, human IgG1
With B3, the Kd (usually a measure of binding affinity in units of concentration) in experiment [2] is 5.27 nM; in experiment [3], 18.9 nM.

B4: M4H1L1-ZalH4 (bispecific antibody, human IgG1, kappa)
heavy: not shown
light: B3 light
chain 1: not shown
chain 2: DIQLTQSPSSLSASVGDRVTITCRASQDISSALVWYQQKPGKAPKLLIYDASSLESGVPSRFSGSESGTDFTLTISSLQPEDFATYYCQQFNSYPLTFGGGTKVEIKGGGGSSGAPRFLTRPKASVVSVGKDATLSCQIVGNPFPQVSWEKDKQPVTAGVRFRLAQDGDLYRLKILDLQLSDSGQYVCRARNAHGEAFACLGLQVDAEA
notes: also called anti-EGFR-MUC1 bispecific antibody
With B4, the Kd was 10.4 nM in the experiment with human EGFR-His antigen [4]; 19.6 nM with human EGFR-His antigen [5]; 14.8 nM with human EGFR-His antigen [6]; 243 nM in [7]; 17.8 nM in [3]; 18 nM with human EGFR-His antigen [8]. In addition, the koff (in general, the first-order rate constant of dissociation) in the experiment with human EGFR-His antigen [4] was 0.00144 s⁻¹. In addition, the kon (commonly the second-order rate constant of association) with human EGFR-His antigen [4] came out at 139000 M⁻¹ s⁻¹.

B5: F4-1 (antibody of hybridoma 3H6) (antibody, V domains shown)
VH: QIQLQQSGPELVKPGASVKISCKASGYTFTDNYINWVKQRPGQGLEYIGWIYPGSGNNKFNEKFKGKATLTVDTSSRTAFMQLSSLTFEDSAVYFCARDYPFPSYHYGMDYWGQGTSVTVSS
VL: QILLTQSPAIMSASPGERVTITCSASSSVSYIHWFQQKPGTSPKLWIYSTSNLASGVPPRFSGSGSGTSFSLTVSRMEAEDAATYYCQQRSSYPPTFGGGTKLEIK
notes: murine antibody tested as hybridoma supernatant; also called hybridoma supernatant 3H6
In experiment [1], B5 came in with an OD450 nm of 2.33.

B6: ZalH4 (antibody, human IgG1, kappa, V domains shown)
VH: QVQLVESGGGVVQPGRSLRLSCAASGFTFSTYGMHWVRQAPGKGLEWVAVIWDDGSYKYYGDSVKGRFTISRDNSKNTLYLQMNSLRAEDTAVYYCARDGVTMVRGVMKDYFDYWGQGTLVTVSS
VL: DIQLTQSPSSLSASVGDRVTITCRASQDISSALVWYQQKPGKAPKLLIYDASSLESGVPSRFSGSESGTDFTLTISSLQPEDFATYYCQQFNSYPLTFGGGTKVEIKR
notes: anti-EGFR zalutumumab variant, human IgG1; also called EGFR monoclonal antibody ZalH4
For B6, the Emax came out at 37600 in [9] and 13000 in experiment [10]. Further, the Kd in the experiment with human EGFR-His antigen [11] worked out at 44.3 nM; with human EGFR-His antigen [6], 33 nM; in experiment [7], 477 nM.

B7: ZalH4-9-A (antibody, human IgG1, kappa, V domains shown)
VH: B6 VH
VL: B6 VL
modifications: compound 9-A coupled to reduced cysteines of the antibody (chains and sites not stated), average DAR n=5.94
notes: also called EGFR monoclonal antibody ADC
Regarding B7, the Emax came out at 31700 in experiment [9] and 14400 in experiment [10].
